Results from US20120164153A1 (GOVERNMENT OF THE UNITED STATES AS REPRESENTED BY THE …, published 2012).

T1: Zaire ebolavirus (ZEBOV) GP (Zaire ebolavirus, UniProt Q05320 33-676)
T1 construct: whole, on cells; also called Zaire GP
T1 sequence: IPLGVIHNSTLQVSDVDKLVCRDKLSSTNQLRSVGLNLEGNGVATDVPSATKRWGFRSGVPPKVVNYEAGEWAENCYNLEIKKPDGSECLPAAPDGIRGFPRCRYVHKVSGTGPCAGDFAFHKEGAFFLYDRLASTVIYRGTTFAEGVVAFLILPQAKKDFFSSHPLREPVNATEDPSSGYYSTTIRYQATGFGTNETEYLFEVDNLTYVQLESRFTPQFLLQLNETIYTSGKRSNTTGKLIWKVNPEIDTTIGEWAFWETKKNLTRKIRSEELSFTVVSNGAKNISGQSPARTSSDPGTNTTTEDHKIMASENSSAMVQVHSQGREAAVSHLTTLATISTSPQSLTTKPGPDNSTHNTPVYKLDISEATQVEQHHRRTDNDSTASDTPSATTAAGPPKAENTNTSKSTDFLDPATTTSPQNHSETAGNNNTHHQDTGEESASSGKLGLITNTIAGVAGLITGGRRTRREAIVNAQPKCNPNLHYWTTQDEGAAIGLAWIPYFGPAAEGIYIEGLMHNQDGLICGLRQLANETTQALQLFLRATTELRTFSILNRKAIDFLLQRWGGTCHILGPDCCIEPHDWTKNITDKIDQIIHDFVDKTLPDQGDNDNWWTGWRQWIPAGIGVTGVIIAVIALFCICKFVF

B1: monoclonal antibody 16F6 (murine IgG1) (antibody, V domains shown)
VH: EVQLVESGGGLVTPGGSLKLSCAASGFAFNYYDMFWVRQNTEKRLEWVAYINSGGGNTYYPDTVKGRFTISRDNAKKTLFLQMSSLRSEDTAMYYCARQLYGNSFFDYWGQGTSLTVSA
VL: DIVMTQSHKFMSTSVGDRVTITCKASQDVTTAVAWYQQKPGHSPKLLIYWASTRHTGVPDRFTGSGSGTDFTLTLNSVQAEDLALYYCQQHYSTPLTFGAGTKLELK
notes: also called mAb 16F6; MAb 16F6

What was measured:
[1] = target: Zaire ebolavirus (ZEBOV) GP (Zaire ebolavirus) (UniProt Q05320); assay: cell-based or functional assay
[2] = target: T1, Zaire ebolavirus (ZEBOV) GP; assay: flow cytometry on infected Vero cells (FIG. 15)

| Molecule | neutralization of Zaire GP-pseudotyped VSV on 293 cells [1] | binding result [2] |
| --- | --- | --- |
| monoclonal antibody KZ52 | 90% | – |
| B1 | – | no binding |
